According to publication PMC6286129, “CryoEM structures of open dimers of gyrase A in complex with DNA illuminate mechanism of strand passage” (eLife, 2018):

What was measured:
[1] = target: the molecule itself; experiment: cryo-EM structure; Dihedral complex: GyrA-ΔCTD mixed with 44 bp DNA and ciprofloxacin, no GyrB; purified on a glycerol/glutaraldehyde gradient (GraFix); also a low resolution reconstruction without glutaraldehyde or antibiotics
[2] = target: the molecule itself; experiment: cryo-EM structure; Tetrahedral complex: GyrA-ΔCTD mixed with GyrB, 44 bp DNA, ciprofloxacin and novobiocin; purified on a glycerol/glutaraldehyde gradient (GraFix)

B1: Streptococcus pneumoniae gyrase A subunit with truncated C-terminal domain (GyrA-ΔCTD, residues 1–487) (domain or fragment, UniProt P72524 1-487, looked up)
chain: MQDKNLVNVNLTKEMKASFIDYAMSVIVARALPDVRDGLKPVHRRILYGMNELGVTPDKPHKKSARITGDVMGKYHPHGDSSIYEAMVRMAQWWSYRYMLVDGHGNFGSMDGDSAAAQRYTEARMSKIALEMLRDINKNTVDFVDNYDANEREPLVLPARFPNLLVNGATGIAVGMATNIPPHNLGETIDAVKLVMDNPEVTTKDLMEVLPGPDFPTGALVMGKSGIHKAYETGKGSIVLRSRTEIETTKTGRERIVVTEFPYMVNKTKVHEHIVRLVQEKRIEGITAVRDESNREGVRFVIEVKRDASANVILNNLFKMTQMQTNFGFNMLAIQNGIPKILSLRQILDAYIEHQKEVVVRRTRFDKEKAEARAHILEGLLIALDHIDEVIRIIRASETDAEAQAELMSKFKLSERQSQAILDMRLRRLTGLERDKIQSEYDDLLALIADLADILAKPERVSQIIKDELDEVKRKFSDKRRTELMIG
notes: DNA gyrase subunit A, Streptococcus pneumoniae, gene cloned from the ATCC genome 700669DQ; residues 1-487 (C-terminal domain removed); The vector pMCSG7 adds 24 amino acids at the N-terminus, with a six amino acid His-tag and a TEV cleavage site; It forms open dimers that assemble around a 44 bp DNA into oligomers of four dimers (Dihedral complex) or six dimers (Tetrahedral complex); also called …
[1]
  stoichiometry N: 8 monomers
[2]
  stoichiometry N: 12 monomers
